Source: patent US20230279047A1

Assays:
IgG1 monoclonal antibody = assay: SPR (Biacore), ligand amine-coupled on CM5 chip, IgG1 mAb as probe
[1] = target: human polyclonal IgG (Gammanorm) (human); assay: DBC column, 6 min residence; ligand […] on agarose beads
[2] = target: human polyclonal IgG (Gammanorm) (human); assay: DBC column, 6 min residence; ligand 7.0 mg/ml on agarose beads
[3] = target: human polyclonal IgG (Gammanorm) (human); assay: DBC column, 6 min residence; ligand 9.7 mg/ml on agarose beads
[4] = target: human polyclonal IgG (Gammanorm) (human); assay: as above; remark: listed apart in the source
[5] = target: human polyclonal IgG (Gammanorm) (human); assay: DBC column, 6 min residence; ligand […] on agarose beads; remark: listed apart in the source
[6] = target: human polyclonal IgG (Gammanorm) (human); assay: DBC column, 6 min residence; ligand 7.2 mg/ml on agarose beads
[7] = target: human polyclonal IgG (Gammanorm) (human); assay: DBC column, 6 min residence; ligand 10.8 mg/ml on agarose beads

Zvar(Q9A,N11E,Q40V,A42K,N43A,L44I)1 (designed binder)
Kd (IgG1 monoclonal antibody): 1.07 nM | koff (IgG1 monoclonal antibody): 0.000437 s⁻¹ | kon (IgG1 monoclonal antibody): 410000 M⁻¹ s⁻¹

Zvar(Q9A,N11E,N28A,N43A)4 (designed binder)
Initial IgG capacity Qb10 [1]: 50 mg/mL | Initial IgG capacity Qb10 [2]: 49.1 mg/mL

Zvar(N11K,H18K,S33K,D37E,A42R,N43A,L44I,K50R,L51Y)4 (designed binder)
Initial IgG capacity Qb10 [3]: 56.3 mg/mL | Initial IgG capacity Qb10 [4]: 62.1 mg/mL

Zvar(Q9A,N11E,Q40V,A42K,N43A,L44I)4 (designed binder)
Initial IgG capacity Qb10 [1]: 56.3 mg/mL | Initial IgG capacity Qb10 [5]: 60.3 mg/mL | Initial IgG capacity Qb10 [6]: 49 mg/mL

Zvar(Q9A,N11K,H18K,D37E,A42R)4 (designed binder)
Initial IgG capacity Qb10 [7]: 56.9 mg/mL
